Patent publication US20190300618A1 (Merck Sharp & Dohme, published 2019)
Substitutions are numbered along the chain they refer to. Blank lines part the entries; values can stand above or below the molecule they belong to.

What was measured:
[1] = biological target: human CD27 (A59T), expressed on cells (human) (UniProt P26842); test: flow cytometry, transiently transfected CHO-K1; empty vector: + 5.32
[2] = biological target: human CD27 (wild type), expressed on cells (human) (UniProt P26842); test: as above
[3] = biological target: human CD27 (A59T), expressed on cells (human) (UniProt P26842); test: flow cytometry, transiently transfected CHO-K1; empty vector: GM FITC 212
[4] = biological target: human CD27 (wild type), expressed on cells (human) (UniProt P26842); test: as above
[5] = biological target: T1, human CD27 (wild type), expressed on cells (human, UniProt P26842 21-260); test: flow cytometry on primary T cells
T1 construct: on transfected CHO-K1 / CHOK1 cells, transfected HEK293FT reporter cells or primary human T cells; also called hCD27; HsCD27
Experimental: Labeled cells were washed by re-suspending them in 150 ul of staining buffer (SB) followed by centrifugation at 300 g for 5 minutes. Cells were then resuspended in 100 ul of SB containing primary anti-CD27 antibodies at various concentrations, incubated in the dark at 4° C. for 30 minutes, followed by washing and centrifugation steps as previously described. […] Cells were incubated for 30 minutes at 4° C. in the dark, followed by washing and centrifugation steps. Next, cells were stained with a cocktail of phenotypic antibodies for surface markers (CD3, CD4, CD8, CD11b) and incubated for 30 minutes at 4° C. in the dark, followed by washing and centrifugation steps. […] Samples were acquired in a LSR-Fortessa flow cytometer (BD Biosciences) using the high throughput sampler and data analyzed by FlowJo software (Tree Star Inc).

cells in the + gate [1]: 52.5% | cells in the + gate [2]: 58.9% | GM FITC [3]: 1060 | GM FITC [4]: 1280
Molecule: Fc-mCD70 (Fc fusion)

EC50 above that of 131AVH6VL6-hIgG1 [5]: ≤ 10%
B1: Humanized CD27 131A VH6/VL7-hIgG1 (antibody, V domains shown)
VH: EIQLVQSGAEVKKPGASVKVSCKASGYTFTNYGMNWVKQAPGQGLKWMGWINTNTGEPTYAEEFKGRFTFTLDTSISTAYMELSSLRSEDTAVYYCAREGDAMDYWGQGTTVTVSS
VL: EIVLTQSPATLSLSPGERATLSCSASSSVSYMHWYQQKPGQAPKRWIYDTSKLASGVPARFSGSGSGTSYSLTISSLEPEDFATYYCQQWNSYPFTFGQGTKLEIK
notes: human IgG1 constant region; also called hCD27.131A VH6VL7 hulgG1

EC50 above that of 131AVH6VL6-hIgG1 [5]: ≤ 10%
B2: Humanized CD27 131A VH9/VL9-hIgG1 (antibody, V domains shown)
VH: B1 VH with K38R, I76A
VL: DIQLTQSPSTLSASVGDRVTITCSASSSVSYMHWYQQKPGKAPKRWIYDTSKLASGVPARFSGSGSGTDYTLTISSLQPEDFATYYCQQWNSYPFTFGQGTKLEIK
notes: human IgG1 constant region; also called hCD27.131A VH9VL9 hulgG1

EC50 above that of 131AVH6VL6-hIgG1 [5]: ≤ 10%
B3: Humanized CD27 131A VH8/VL6-hIgG1 (antibody, V domains shown)
VH: B1 VH with S88N
VL: B1 VL with S69D, T84V
notes: human IgG1 constant region; also called hCD27.131A VH8VL6 hulgG1

EC50 above that of 131AVH6VL6-hIgG1 [5]: ≤ 10%
B4: Humanized CD27 131A VH8/VL7-hIgG1 (antibody, V domains shown)
VH: B1 VH with S88N
VL: B1 VL
notes: human IgG1 constant region; also called hCD27.131A VH8VL7 hulgG1

EC50 above that of 131AVH6VL6-hIgG1 [5]: ≤ 10%
B5: Humanized CD27 131A VH7/VL8-hIgG1 (antibody, V domains shown)
VH: B1 VH with V20I, I76A, S77T, M81L, L83I
VL: B1 VL with L13A, A19V, S69D, L77M, T84V
notes: human IgG1 constant region; also called hCD27.131A VH7VL8 hulgG1

EC50 above that of 131AVH6VL6-hIgG1 [5]: ≤ 10%
B6: Humanized CD27 131A VH7/VL6-hIgG1 (antibody, V domains shown)
VH: B1 VH with V20I, I76A, S77T, M81L, L83I
VL: B1 VL with S69D, T84V
notes: human IgG1 constant region; also called hCD27.131A VH7VL6 hulgG1

EC50 above that of 131AVH6VL6-hIgG1 [5]: ≤ 10%
B7: Humanized CD27 131A VH8/VL8-hIgG1 (antibody, V domains shown)
VH: B1 VH with S88N
VL: B1 VL with L13A, A19V, S69D, L77M, T84V
notes: human IgG1 constant region; also called hCD27.131A VH8VL8 hulgG1

EC50 above that of 131AVH6VL6-hIgG1 [5]: ≤ 10%
B8: Humanized CD27 131A VH7/VL7-hIgG1 (antibody, V domains shown)
VH: B1 VH with V20I, I76A, S77T, M81L, L83I
VL: B1 VL
notes: human IgG1 constant region; also called hCD27.131A VH7VL7 hulgG1

EC50 above that of 131AVH6VL6-hIgG1 [5]: ≤ 10%
B9: Humanized CD27 131A VH6/VL8-hIgG1 (antibody, V domains shown)
VH: B1 VH
VL: B1 VL with L13A, A19V, S69D, L77M, T84V
notes: human IgG1 constant region; also called hCD27.131A VH6VL8 hulgG1
